These results are taken from US20190336574A1 (TRUSTEES OF PRINCETON UNIVERSITY, published 2019).

The target of assay [1] is T1, HA-SND1, full-length human, wild type (human, UniProt Q7KZF4 1-910).
T1 construct: Full-length, HA-tagged; Expressed in HEK293T cells, tested in lysate; also called HA-tagged SND1; WT HA-SND1
T1 sequence: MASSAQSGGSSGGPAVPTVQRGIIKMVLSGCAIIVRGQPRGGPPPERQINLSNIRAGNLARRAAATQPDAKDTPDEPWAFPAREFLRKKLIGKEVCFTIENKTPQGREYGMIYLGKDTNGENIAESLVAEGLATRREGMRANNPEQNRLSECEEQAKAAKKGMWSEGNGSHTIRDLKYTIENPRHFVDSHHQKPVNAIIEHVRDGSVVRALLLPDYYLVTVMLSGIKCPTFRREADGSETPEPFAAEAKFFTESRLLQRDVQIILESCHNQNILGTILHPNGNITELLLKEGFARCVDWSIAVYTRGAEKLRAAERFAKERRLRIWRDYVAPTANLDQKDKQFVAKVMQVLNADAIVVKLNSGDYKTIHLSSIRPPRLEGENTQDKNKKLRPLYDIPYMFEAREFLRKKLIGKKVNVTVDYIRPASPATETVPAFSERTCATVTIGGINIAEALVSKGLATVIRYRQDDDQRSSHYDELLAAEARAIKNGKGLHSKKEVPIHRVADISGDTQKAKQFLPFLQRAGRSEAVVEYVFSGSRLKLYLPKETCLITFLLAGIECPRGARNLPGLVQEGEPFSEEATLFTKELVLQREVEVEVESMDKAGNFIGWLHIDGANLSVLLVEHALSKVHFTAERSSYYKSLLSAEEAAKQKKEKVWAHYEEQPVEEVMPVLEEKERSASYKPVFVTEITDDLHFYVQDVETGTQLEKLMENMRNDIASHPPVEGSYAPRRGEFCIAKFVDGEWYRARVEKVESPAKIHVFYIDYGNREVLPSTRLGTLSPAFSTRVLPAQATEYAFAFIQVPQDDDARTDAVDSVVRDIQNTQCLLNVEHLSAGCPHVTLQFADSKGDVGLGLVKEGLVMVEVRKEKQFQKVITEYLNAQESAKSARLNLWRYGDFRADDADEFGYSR
The experiment in a line: competition in co-IP, 50 uM peptide; competitor MTDH. The protocol: 293 T cells were co-transfected with HA-SND1 and MYC-MTDH. After 48 hours, the cells were collected and subject to immunoprecipitation assay. Cell lysate was incubated with anti-HA antibody or IgG overnight followed by a two hour incubation with Protein A/G beads to pull down HA-SND1 protein. The beads were washed with lysis buffer and split into five fractions.
The elution fractions and beads were collected for western blot. (FIGS. 26C and 26D) Cell lyaste was split into 6 fractions. One of the fractions was incubated with IgG and the rest were incubated with anti-HA antibody plus either buffer or indicated peptides. After 24 hours, the lysate was incubated with Protein A/G beads then the beads was washed followed by wash buffer. 50 uM of peptides was used in all the assays.

Assay [2] has as its target T2, murine SND1, wild type (mouse, UniProt Q78PY7 1-910).
T2 construct: Endogenous protein of murine PyMT mammary tumor cells; also called SND1 (in PyMT tumor cells); WT shRNA-resistant murine SND1
T2 sequence (looked up): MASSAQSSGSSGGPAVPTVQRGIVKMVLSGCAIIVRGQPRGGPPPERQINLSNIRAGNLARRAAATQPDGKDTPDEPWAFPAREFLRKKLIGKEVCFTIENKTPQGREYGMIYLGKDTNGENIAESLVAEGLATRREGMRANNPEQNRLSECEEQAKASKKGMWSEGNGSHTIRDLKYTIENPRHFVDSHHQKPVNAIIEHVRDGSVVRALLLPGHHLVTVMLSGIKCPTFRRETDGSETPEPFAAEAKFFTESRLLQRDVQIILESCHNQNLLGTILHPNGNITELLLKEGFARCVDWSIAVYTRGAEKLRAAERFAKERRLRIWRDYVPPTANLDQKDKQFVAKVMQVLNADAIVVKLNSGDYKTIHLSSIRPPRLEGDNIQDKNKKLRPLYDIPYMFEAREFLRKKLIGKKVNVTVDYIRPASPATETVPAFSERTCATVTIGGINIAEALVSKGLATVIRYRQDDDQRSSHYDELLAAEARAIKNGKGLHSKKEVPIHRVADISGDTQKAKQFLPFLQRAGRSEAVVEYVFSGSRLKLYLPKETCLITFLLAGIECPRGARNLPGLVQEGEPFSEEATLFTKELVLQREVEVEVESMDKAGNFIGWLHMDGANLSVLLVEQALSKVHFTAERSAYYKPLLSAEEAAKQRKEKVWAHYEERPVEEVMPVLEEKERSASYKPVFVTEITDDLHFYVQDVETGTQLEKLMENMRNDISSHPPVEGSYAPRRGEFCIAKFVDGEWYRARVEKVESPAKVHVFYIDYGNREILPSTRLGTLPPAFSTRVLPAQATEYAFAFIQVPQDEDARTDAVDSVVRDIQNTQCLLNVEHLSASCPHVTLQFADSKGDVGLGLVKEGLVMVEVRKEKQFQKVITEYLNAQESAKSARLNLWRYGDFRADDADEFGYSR
The experiment in a line: anti-MTDH co-IP from PyMT;Mtdh-/- MECs reconstituted with murine MTDH, western blot. The protocol: (FIG. 8A, FIG. 8E) Lysates from PyMT;Mtdh−/− MECs reconstituted with vector control, WT or mutant murine MTDH were immunoprecipitated with anti-MTDH antibody and immunoblotted for indicated proteins. (FIG. 8B, FIG. 8F) Mammosphere assays were performed with PyMT;Mtdh−/− pMECs reconstituted with indicated Mtdh constructs. (FIG. 8C, FIG. 8D, FIG. 8G, FIG. 8H) In vivo tumor formation (FIG. 8C, FIG. 8G for tumor incidence; FIG. 8D, FIG. 8H for tumor volumes) were performed at limiting numbers using PyMT;Mtdh−/− pMECs reconstituted with indicated WT or mutant MTDH. *Note: mouse W391D MTDH corresponds to human W394D MTDH; and mouse W398D MTDH corresponds to human W401D MTDH. Statistics: (FIG. 8B, […]) Student's t-test. (FIG. 8C, FIG. 8G) Limiting dilution analysis. (FIG. 8D, FIG. 8H) Mann-Whitney test. Data represent mean±SEM. ***p<0.001, **p<0.01, *p<0.05.
Immunoprecipitation and western blot For immunoprecipitation (IP) experiments, cultured cells were washed in cold PBS and lysed in lysis buffer (20 mM Tris pH 7.4, 0.15 M NaCl, 1 mM EDTA, 1 mM EGTA, 1% Tx-100, 0.0025 M Na2P2O7, 1 mM α-glycerolphosphate, 1 mM Na3VO4, and 1 mM NaF) with an EDTA-free protease inhibitor mixture (Roche Applied Science) and PMSF. Cell lysates were then incubated on ice for 10 min, centrifuged, and precleared by incubating with protein A/G beads (Santa Cruz Biotechnology) for 1 h at 4° C. […]
(A western blot detects proteins with antibodies after separation by electrophoresis.)

The target of assay [3] is T3, His-SND1 (16-339), SN1/2 domains, wild type (human, UniProt Q7KZF4 16-339).
T3 construct: also called His6-SND1 harboring the SN1/2 domains; not shown: N-terminal His tag (His6, His8 or His) with TEV site, pQlink vector
T3 sequence: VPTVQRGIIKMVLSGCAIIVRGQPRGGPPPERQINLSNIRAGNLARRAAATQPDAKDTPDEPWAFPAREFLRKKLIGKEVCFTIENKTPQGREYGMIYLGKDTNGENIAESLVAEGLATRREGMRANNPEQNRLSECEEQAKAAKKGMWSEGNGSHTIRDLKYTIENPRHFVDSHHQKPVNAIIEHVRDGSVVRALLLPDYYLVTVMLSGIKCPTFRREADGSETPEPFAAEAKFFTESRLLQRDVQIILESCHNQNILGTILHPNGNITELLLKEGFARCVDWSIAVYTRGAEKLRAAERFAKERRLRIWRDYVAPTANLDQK
As to the kind of experiment: GST pull-down on glutathione resin, SDS-PAGE, Coomassie blue; normalised percentage of binding, mean±SEM of three experiments. The source says:
The proteins bound to GS4B were examined on SDS-PAGE and visualized by Coomassie blue staining. […] The bound proteins were examined as in (FIG. 22A). For both (FIG. 22A) and (FIG. 22B), experiments were repeated three times; representative results are shown. The normalized percentage of binding was averaged from three experiments; mean±SEM was shown below the data. (FIG. 22C) HEK293T cells were transfected with human HA-SND1, WT Myc-MTDH or Myc-MTDH with indicated single point mutation. Lysates were immunoprecipitated with anti-Myc antibody and immunoblotted with the indicated antibodies. (FIG. 22D) HEK293T cells were transfected with human Myc-MTDH, WT HA-SND1 or mutant HA-SND1 with indicated single point mutations or deletions. Lysates were immunoprecipitated with anti-Myc and immunoblotted with the indicated antibodies.
(§1) GST-Mediated Pull-Down Assay: ˜20 μg of GST-MTDH (different truncation forms and site mutants) was bound to 10 μl of glutathione resin via GST tag. The resin was washed with 200 μl assay buffer (25 mM Tris, PH8.0, 150 mM NaCl, 3 mM DTT) three times to remove the excess unbound protein. […] The mixture was washed with 200 μl assay buffer twice before examined by SDS-PAGE, and visualized by Coomassie blue staining. The experiments were repeated 3 times and the ratio of SND1 associated with GST-MTDH was analyzed by ImageJ.
Identification of MTDH and SND1 mutants deficient in binding: To gain insight into how the interface characterized above contributes to MTDH-SND1 interaction, structure-guided mutagenesis studies were performed.

The target of assay [4] is T3, His-SND1 (16-339), SN1/2 domains, wild …. The experiment in a line: GST pull-down of His-SND1 (16-339), SDS-PAGE, Coomassie. The protocol: as §1

B1: Peptide-401A (PNSDWNAPAEEAGNW) (peptide)
peptide: PNSDWNAPAEEAGNW
notes: also called peptide comprising the single point mutation W401A
For B1, the “effectiveness in blocking the MTDH-SND1 interaction relative to the wild type peptide” value in assay [1] was ~0.5 fold of wild type peptide.

B2: W398D* (other, mouse, UniProt Q80WJ7 1-579, looked up)
single chain: MAARSWQDELAQQAEEGSARLRELLSVGLGFLRTELGLDLGLEPKRYPGWVILVGTGALGLLLLFLLGYGWAAACAGARKKRRSPPRKREEAAPPTPAPDDLAQLKNLRSEEQKKKNRKKLPEKPKPNGRTVEVPEDEVVRNPRSITAKQAPETDKKNEKSKKNKKKSKSDAKAVQNSSRHDGKEVDEGAWETKISHREKRQQRKRDKVLTDSGSLDSTIPGIENIITVTTEQLTTASFPVGSKKNKGDSHLNVQVSNFKSGKGDSTLQVSSRLNENLTVNGGGWSEKSVKLSSQLSEEKWNSVPPASAGKRKTEPSAWTQDTGDTNANGKDWGRNWSDRSIFSGIGSTAEPVSQSTTSDYQWDVSRNQPYIDDEWSGLNGLSSADPSSDWNAPAEEDGNWVDEDRASLLKSQEPISNDQKVSDDDKEKGEGALPTGKSKKKKKKKKKQGEDNSHTQDTEDLEKDTREELPVNTSKARPKQEKACSLKTMSTSDPAEVLIKNSQPVKTLPPAISAEPSITLSKGDSDNSSSQVPPMLQDTDKPKSNAKQNSVPPSQTKSETNWESPKQIKKKKKARRET
notes: point mutant W398D, murine numbering; named in the legend's footnote and on the sheet; also called mouse W398D MTDH (corresponds to human W401D MTDH)
Regarding B2, the binding result in assay [2] is recorded as “no binding”.

B3: GST-MTDH (364-582) W394A (other)
chain: YQWDVSRNQPYIDDEWSGLNGLSSADPNSDANAPAEEWGNWVDEERASLLKSQEPIPDDQKVSDDDKEKGEGALPTGKSKKKKKKKKKQGEDNSTAQDTEELEKEIREDLPVNTSKTRPKQEKAFSLKTISTSDPAEVLVKNSQPIKTLPPATSTEPSVILSKSDSDKSSSQVPPILQETDKSKSNTKQNSVPPSQTKSETSWESPKQIKKKKKARRET
notes: not shown: N-terminal GST tag with TEV site, pQlink vector
On to B3, for which the “% Maximum binding” value in assay [3] came out at 1%. Besides, the binding result in assay [4] is “no binding”.
